Data published in paper PMC13038408 (Nature Chemical Biology, 2025).

T1: RSVFV-1 (synthetic construct (de novo scaffold …))
T1 construct: also called RSVF-V H6; source: E. coli BL21 (DE3), purified (Ni-NTA, SEC)
T1 chain: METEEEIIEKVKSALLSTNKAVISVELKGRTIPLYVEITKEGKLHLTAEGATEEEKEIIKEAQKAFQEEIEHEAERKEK

T2: RSVFV-2 (de novo design (synthetic))
T2 construct: source: E. coli BL21 (DE3), purified (Ni-NTA, SEC)
T2 chain: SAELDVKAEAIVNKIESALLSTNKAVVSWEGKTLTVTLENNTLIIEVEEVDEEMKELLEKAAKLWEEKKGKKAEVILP

T3: RSVFV-3 (de novo design (synthetic))
T3 construct: source: E. coli BL21 (DE3), purified (Ni-NTA, SEC)
T3 chain: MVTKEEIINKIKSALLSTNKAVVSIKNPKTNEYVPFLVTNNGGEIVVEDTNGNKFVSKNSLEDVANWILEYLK

T4: RSVFV-4 (de novo design (synthetic))
T4 construct: source: E. coli BL21 (DE3), purified (Ni-NTA, SEC)
T4 chain: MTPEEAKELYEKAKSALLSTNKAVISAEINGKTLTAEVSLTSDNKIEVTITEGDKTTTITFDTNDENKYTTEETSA

T5: RSVF-multi-3 (de novo design (synthetic))
T5 construct: source: E. coli BL21 (DE3), purified (Ni-NTA, SEC)
T5 chain: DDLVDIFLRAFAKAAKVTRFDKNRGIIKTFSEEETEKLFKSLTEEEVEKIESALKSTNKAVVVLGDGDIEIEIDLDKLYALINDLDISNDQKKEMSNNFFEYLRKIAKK

T6: RSVF-multi-4 (synthetic construct (de novo design))
T6 construct: also called RSVF-multi-4 WT; source: E. coli BL21 (DE3), purified (Ni-NTA, SEC)
T6 chain: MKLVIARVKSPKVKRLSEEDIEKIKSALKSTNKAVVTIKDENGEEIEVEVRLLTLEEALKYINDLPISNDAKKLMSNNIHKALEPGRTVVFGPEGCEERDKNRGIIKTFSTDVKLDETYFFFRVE


Legend:
Assay in all cases: SPR
Conditions in all cases: both partners purified
RSVFV-1 = molecular target: T1, RSVFV-1
RSVFV-2 = molecular target: T2, RSVFV-2
RSVFV-3 = molecular target: T3, RSVFV-3
RSVFV-4 = molecular target: T4, RSVFV-4
RSVF-multi-3 = molecular target: T5, RSVF-multi-3
RSVF-multi-4 = molecular target: T6, RSVF-multi-4

Binder	Kd (RSVFV-1) [nM]	Kd (RSVFV-2) [nM]	Kd (RSVFV-3) [nM]	Kd (RSVFV-4) [nM]	Kd (RSVF-multi-3) [nM]	Kd (RSVF-multi-4) [nM]
RSV90 Fab (Fab, V domains shown, also called hRSV90; site-V-specific antibody) VH: EVQLVESGGGLVQPRRSLRLSCAASGFTFDDYTIHWVRQAPGKGLEWVSGITWNSGYIGYADSVKGRFTISRDNARNSLYLQMNSLRAEDTALYYCVRDAYVSGSDYYYYGLDVWGRGTLVTVSS VL: EIVMTSSPATLSVSPGERVTLFCRASQSVISNLAWYQQKSGQAPRLLIYGASTRATGIPSRFSGSGSGTEFTLTISSLQSEDFAVYFCQQYNNWPLTFGGGTQVNVQ	54	108	94	241	–	–
Motavizumab IgG (antibody, V domains shown, also called site-II-specific antibody) VH: QVTLRESGPALVKPTQTLTLTCTFSGFSLSTAGMSVGWIRQPPGKALEWLADIWWDDKKHYNPSLKDRLTISKDTSKNQVVLKVTNMDPADTATYYCARDMIFNFYFDVWGQGTTVTVSS VL: DIQMTQSPSTLSASVGDRVTITCSASSRVGYMHWYQQKPGKAPKLLIYDTSKLASGVPSRFSGSGSGTEFTLTISSLQPDDFATYYCFQGSGYPFTFGGGTKVEIK	–	–	–	–	18	14
